Source: patent US7732592B2, “ALK protein tyrosine kinase, cells and methods embodying and using same” (New York University, priority 2003, dated 2010)

Legend:
MEF-NPM-ALK cells = test: Morphology of MEF-NPM-ALK cells after infection; type: cell-based
Excerpt: Since NPM-ALK expression in MEF cells leads to relevant morphological changes including cell elongation, bipolarized formations and loose plate attachment, the effect of inhibition of NPM-ALK expression on the phenotype of these cells was then studied. […] Furthermore, highly enriched GFP^+, puromycin resistant pSRG-A5MEF-NPM-ALK cells injected into athymic Nu/Nu mice (1×10^6 cells) grew poorly compared to control infected cells (FIG. 9 D).

NPM-ALK [1] = test: NPM-ALK protein expression in MEF NPM-ALK Tet-Off cells after retroviral infection, Western blot; type: cell-based
Method: FIG. 9. Anti-ALK siRNA inhibits NPM-ALK-mediated transformation of MEF cells. (A) Suppression of NPM-ALK expression leads to down-regulation of known downstream targets of ALK. MEF NPM-ALK Tet-Off cells were infected with pSRG-A5 virus, transduction efficiency was assessed 72 hours post-infection by FACS analysis of GFP (40%). pSRG-A5-infected cells were further enriched by selection with 1 mg/ml puromycin for 1 week (90%). NPM-ALK expression was inhibited by doxycyclin withdrawn. Protein expression was evaluated culturing (72 hr) semi-confluent cells in absence of doxycyclin. (B) shRNA A-5 expression leads to G0/G1 cell cycle arrest. DNA content analysis was performed in cells grown to confluence and kept in 0.2% serum medium for 72 hours in presence of absence of doxycyclin. Cells were then listed and analysed by Western blotting with indicated antibodies. […] Tumor growth was monitored weekly for 4 weeks. […]
Retroviral supernatants were produced by co-transfection of GP-293 packaging cells with pSRGAx and pVSV-G (Clontech, Palo Alto, Calif., USA); virus-containing supernatants were collected at 48, 72 and 90 hours, filtrated and concentrated by centrifugation. […] Transfection and infection efficiencies were calculated using the percentage of GFP positive cells, identified using fluorescence microscopy (Leica IM RE2) or flow cytometry (FACSCalibur, BD Biosciences, San Josè, Calif., USA). […]

ALK receptor (ALK-R) = test: Co-transfection of pSUPER shRNA vectors with Pallino ALK-R in HEK-293T cells, Western blot; type: cell-based; conditions: transfected HEK-293T cells
Method: (§1) FIG. 8. Selection of anti-ALK shRNA. […] HEK-293T were co-transfected with Pallino NPM-ALK (2 μg) and one of six different pSUPER vectors carrying shRNA specific for ALK sequences (pS-A1-6)(8 μg). Cells were lysed 72 hours post-transfection and immunoblotted with the indicated antibodies. −=no transfection; A pSUPER-shRNA carrying a p53 specific sequence was used a unrelated control. (pS-p53) (B) ALK5 (A5) inhibits ATIC-ALK protein expression. HEK-293T were co-transfected with Pallino ATIC-ALK and pSUPER-ALK shRNA interfering sequences as above. Expression of ATIC-ALK protein was determined by Western blot analysis as described above. (C) ALK5 (A5) inhibits ALK receptor (ALK-R) protein expression. HEK-293T cells were co-transfected with Pallino ALK-R and pSUPER-ALK shRNA interfering sequences as above.
(§2) Transfections of HEK-293T, GP-293, and MEF Tet-Off cells were performed with Effectene reagent (Qiagen, Valencia, Calif., USA), according to the manufacturer's instructions.
(§3) For Western Blot analysis, cells were lysed (50 mM Tris-HCl, pH 7.4, 150 mM NaCl, 0.1% Triton X-100, 5 mM EDTA, 1 mM Na3VO4, and 1 mM phenylmethyl sulfonyl fluoride and protease inhibitors). Total protein lysates (20 μg) were electrophoresed in SDS-PAGE gel and transferred onto nitrocellulose membranes. […]

ATIC-ALK = test: Co-transfection of pSUPER shRNA vectors with Pallino ATIC-ALK in HEK-293T cells, Western blot; type: cell-based; conditions: transfected HEK-293T cells
Method: as §1, §2, §3

NPM-ALK [2] = test: Co-transfection of pSUPER shRNA vectors with Pallino-NPM-ALK in HEK-293T cells, Western blot; type: cell-based; conditions: HEK-293T co-transfected with Pallino-NPM-ALK; after 48 hrs from transfection
Method: as §1, with “Cells were lysed 72 hours post-transfection and immunoblotted with the indicated antibodies. −=no transfection; A pSUPER-shRNA carrying a p53 specific sequence was used a unrelated control.” left out
as §2
as §3, with “membranes. The filters were first blocked (5% low fat milk in PBS with 0.1% Tween 20; 1 h at RT), and then incubated with the primary antibodies for 1 hour at room temperature.” for “membranes.”

TS cells = test: Cell death of sorted GFP-positive TS cells by microscopy; type: cell-based, human; conditions: sorted TS cells (>95% GFP), 24 hr after cell sorting
Method: FIG. 11. Anti-ALK siRNA inhibits growth and induces cell death in TS cells. ShRNA A5 leads ALK+ ALCL cells to cell death. Human TS cells were transduced with pSRG or pSRG-A5 constructs, and […], GFP-positive cells were sorted using MoFo sorter. (A) Highly enriched GFP+ cells (>95%) were evaluated (24 hours after sorting) using a light or fluorescent inverted microscope, (bright field: left panels). 5×10^3/well cells were plated (96-well plate) and the percentage of alive cells was calculated overtime (B). Total number of live cells was also calculated at day 3, 4 and 6 after sorting (C).
To study whether ALK siRNA could promote cell death, highly enriched A5-GFP-positive TS cells by cell sorting (>95% GFP) were evaluated by microscopy. […] These findings were confirmed with enumeration of viable cells by trypan blue exclusion (FIG. 11B) and proliferating cell quantitation using total cell counts (FIG. 11C).

B1: A5: short hairpin oligonucleotide against cytoplasmic domain of ALK, SEQ ID NO: 5; in pSUPER vector (nucleic acid)
chain: GATCCCCGGGCGAGCTACTATAGAAATTCAAGAGATTTCTATAGTAGCTCGCCCTTTTTGGAAA
MEF-NPM-ALK cells
  cellular morphology (transformed phenotype): regained their normal pre-transformed cellular features
NPM-ALK [1]; MEF NPM-ALK Tet-Off after doxycyclin withdrawal, proportional to percentage of GFP positive cells
  NPM-ALK protein expression: significant down-regulation
NPM-ALK [1]; MEF-NPM-ALK cells
  NPM-ALK level in MEF-NPM-ALK cells after infection: very low levels
ALK receptor (ALK-R)
  expression of ALK receptor: successfully abrogate expression
ATIC-ALK
  expression of ATIC-ALK: successfully abrogate expression
NPM-ALK [2]
  down-regulation of the protein level of NPM-ALK: > 90%
TS cells
  cells with shrunken, picnotic nuclei lacking detectable GFP expression: > 50%
